Reference: patent publication US20260193331A1 (THABOR THERAPEUTICS, published 2026)
Changes are numbered by the printed parent chain. Where two headings read alike, the source gives them in different places. One block for each binder: values may come before it.

Tests used:
[1] = target: T1, human AGR2 WT (human, UniProt O95994 21-175); assay: ELISA, antigen coated at 1 µg/mL, antibody titrated
T1 construct: also called hAGR2; recombinant human AGR2
T1 sequence: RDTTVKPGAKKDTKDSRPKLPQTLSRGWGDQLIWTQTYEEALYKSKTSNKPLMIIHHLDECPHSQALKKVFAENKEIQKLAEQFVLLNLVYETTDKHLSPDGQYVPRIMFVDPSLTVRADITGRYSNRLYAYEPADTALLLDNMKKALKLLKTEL

[2] = target: T2, macaque AGR2 (macaque (rhesus monkey), UniProt O95994 21-175 (human entry), limits assumed); assay: as above
T2 construct: Whole entry as named; also called rhesus monkey AGR2
T2 chain: T1 sequence with M109L

[3] = target: T3, human AGR2 E60A (human, UniProt O95994 21-175); assay: as above
T3 construct: Whole entry as named; also called monomeric AGR2
T3 chain: T1 sequence with E40A

[4] = target: T4, dog AGR2 (dog, UniProt O95994 21-175 (human entry), limits assumed); assay: as above
T4 construct: Whole entry as named
T4 chain: T1 sequence with R1K, T3I, P7S, R17A, M109I, A135S, T137I

[5] = target: T5, mouse AGR2 (mouse, UniProt O88312 21-175); assay: as above
T5 construct: Whole entry as named
T5 sequence: T1 sequence with R1K, P7S, T13P, K44R, K50R, I54V, N74H, M109V, A135S, L141Y

[6] = target: T6, BSA (UniProt P02769 25-607); assay: ELISA on plate-coated antigen (1 µg/mL); antibody titrated 10 µg/mL to 0.15 ng/mL; anti-human IgG-HRP, OD 450 nm
T6 construct: Negative control coating in the ELISA
T6 sequence (P02769 25-607 limits assumed): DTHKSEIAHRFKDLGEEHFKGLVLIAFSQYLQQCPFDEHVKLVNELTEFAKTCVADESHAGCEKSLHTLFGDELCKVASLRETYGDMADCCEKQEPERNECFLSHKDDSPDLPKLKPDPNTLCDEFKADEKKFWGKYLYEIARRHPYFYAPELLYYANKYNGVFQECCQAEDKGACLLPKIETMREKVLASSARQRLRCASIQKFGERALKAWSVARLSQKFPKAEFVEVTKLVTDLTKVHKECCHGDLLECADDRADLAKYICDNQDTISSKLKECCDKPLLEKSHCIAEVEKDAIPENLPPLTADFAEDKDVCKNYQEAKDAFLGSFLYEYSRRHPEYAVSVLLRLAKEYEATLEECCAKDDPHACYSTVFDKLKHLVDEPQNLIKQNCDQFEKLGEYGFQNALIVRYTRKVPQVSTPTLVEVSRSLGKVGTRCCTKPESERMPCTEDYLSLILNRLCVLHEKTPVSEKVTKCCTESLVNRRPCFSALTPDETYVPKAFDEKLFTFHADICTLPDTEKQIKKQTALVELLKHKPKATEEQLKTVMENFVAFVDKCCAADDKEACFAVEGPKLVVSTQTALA

[7] = target: T7, human AGR3 (human, UniProt Q8TD06 22-166, limits assumed); assay: as above
T7 construct: Closest family member of AGR2, used as a specificity control in the ELISA
T7 sequence (looked up): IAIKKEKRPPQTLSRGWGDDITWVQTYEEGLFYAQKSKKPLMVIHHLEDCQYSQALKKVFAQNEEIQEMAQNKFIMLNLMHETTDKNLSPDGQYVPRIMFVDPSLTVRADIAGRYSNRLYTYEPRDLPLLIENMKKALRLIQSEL

[8] = target: T1, human AGR2 WT; assay: kinetics of Table 4, antibody immobilized, hAGR2 analyte
[9] = target: T1, human AGR2 WT; assay: kinetics, antibody immobilized, hAGR2 soluble analyte; instrument not stated
[10] = target: T6, BSA; assay: ELISA on plate-coated antigen (1 µg/mL); antibody titrated 10 µg/mL to 0.15 ng/mL; anti-human IgG-HRP, OD 450 nm; remark: listed apart in the source
[11] = target: T7, human AGR3; assay: as above; remark: listed apart in the source
[12] = target: T6, BSA; assay: as above; remark: listed apart in the source
[13] = target: T7, human AGR3; assay: as above; remark: listed apart in the source
[14] = target: T6, BSA; assay: as above; remark: listed apart in the source
[15] = target: T7, human AGR3; assay: as above; remark: listed apart in the source
[16] = target: T6, BSA; assay: as above; remark: listed apart in the source
[17] = target: T7, human AGR3; assay: as above; remark: listed apart in the source
[18] = target: T6, BSA; assay: as above; remark: listed apart in the source
[19] = target: T7, human AGR3; assay: as above; remark: listed apart in the source

- EC50 [1]: 0.633 nM
- EC50 [2]: 0.547 nM
- EC50 [3]: 0.96 nM
- EC50 [4]: 0.547 nM
- EC50 [5]: 0.313 nM
- binding result [6]: no binding (tested: 10 µg/mL)
- Kd [8]: < 0.15 nM
- Kd [9]: 0.00327 nM
- koff [9]: 1.07e-06 s⁻¹
- kon [9]: 326000 M⁻¹ s⁻¹
B1: TH-106 IgG1-LALA humanized monoclonal antibody (antibody)
heavy: not shown
light: EIVLTQSPATLSLSPGERATLSCKASQDINSYLSWFQQKPGQAPRTLIYRANRLVDGIPARFSGSGSGQDFTLTISSLEPEDFAVYYCLQYDEFPFTFGGGTKVEIKRTVAAPSVFIFPPSDEQLKSGTASVVCLLNNFYPREAKVQWKVDNALQSGNSQESVTEQDSKDSTYSLSSTLTLSKADYEKHKVYACEVTHQGLSSPVTKSFNRGEC
- binding result [7]: no binding (tested: 10 µg/mL)

- EC50 [1]: 0.853 nM
- EC50 [2]: 0.553 nM
- EC50 [3]: 1.1 nM
- EC50 [4]: 0.66 nM
- EC50 [5]: 0.3 nM
- binding result [10]: no binding (tested: 10 µg/mL)
B2: TH-106 IgG1 humanized monoclonal antibody (antibody)
heavy: not shown
light: B1 light
- binding result [11]: no binding (tested: 10 µg/mL)

- EC50 [1]: 2.37 nM
- EC50 [2]: 2.15 nM
- EC50 [3]: 3.57 nM
- EC50 [4]: 2.31 nM
- EC50 [5]: 2.03 nM
- binding result [12]: no binding (tested: 10 µg/mL)
- Kd [8]: < 0.15 nM
- Kd [9]: 0.0265 nM
- koff [9]: 8.74e-06 s⁻¹
- kon [9]: 329000 M⁻¹ s⁻¹
B3: TH-109 IgG1-LALA humanized monoclonal antibody (antibody, V domains shown)
VH: QVQLVQSGSELKKPGASVKVSCKTSGYVFSRSWMNWVRQAPGQGLEWIGWIYPGDGDTNYNGKFKDRFVLSADKSVSTVYLQISSLKAEDTAVYFCARGGYDGSPWLSYWGQGTLVTVSS
VL: EIVLTQSPATLSLSPGERATLSCKASQDINSYLSWFQQKPGQAPRTLIYRANRLVDGIPARFSGSGSGQDFTLTISSLEPEDFAVYYCLQYDEFPFTFGGGTKVEIKR
- binding result [13]: no binding (tested: 10 µg/mL)

- EC50 [1]: 0.813 nM
- EC50 [2]: 0.62 nM
- EC50 [3]: 1.29 nM
- EC50 [4]: 0.6 nM
- EC50 [5]: 0.5 nM
- Kd [8]: < 0.15 nM
- Kd [9]: 0.063 nM
- koff [9]: 1.94e-05 s⁻¹
- kon [9]: 308000 M⁻¹ s⁻¹
- binding result [14]: no binding (tested: 10 µg/mL)
B4: TH-115 IgG1-LALA humanized monoclonal antibody (antibody, V domains shown)
VH: QVQLLESGGGLVKPGGSLRLSCATSGYVFSRSWMNWIRQAPGQGLEWIGWIYPGDGDTNYNGKVKDRFTLSADKAKNSVYLQMNSLRAEDTAVYFCARGGYDGSPWLSYWGQGTLVTVSS
VL: EIVLTQSPDFQSVTPKEKVTITCKASQDINSYLSWFQQKPDQSPKTLIYRANRLVDGVPSRFSGSGSGQDFTLTINSLEAEDAATYYCLQYDEFPFTFGGGTKVEIKR
- binding result [15]: no binding (tested: 10 µg/mL)

- EC50 [1]: 0.52 nM
- EC50 [2]: 0.48 nM
- EC50 [3]: 1.24 nM
- EC50 [4]: 0.42 nM
- EC50 [5]: 0.28 nM
- Kd [8]: < 0.15 nM
- binding result [16]: no binding (tested: 10 µg/mL)
- Kd [9]: 0.116 nM
- koff [9]: 3.52e-05 s⁻¹
- kon [9]: 303000 M⁻¹ s⁻¹
B5: TH-101 IgG1-LALA humanized monoclonal antibody (antibody, V domains shown)
VH: QVQLVQSGAEVKKPGASVKVSCKTSGYVFSRSWMNWVRQAPGQGLEWIGWIYPGDGDTNYNGKFKDRVTLTADKSTSTVYMELSSLRSEDTAVYFCARGGYDGSPWLSYWGQGTLVTVSS
VL: DIQMTQSPSSLSASVGDRVTITCKASQDINSYLSWFQQKPGKAPKTLIYRANRLVDGVPSRFSGSGSGQDFTLTISSLQPEDIATYYCLQYDEFPFTFGGGTKVEIKR
- binding result [17]: no binding (tested: 10 µg/mL)

- EC50 [1]: 0.527 nM
- EC50 [2]: 0.44 nM
- EC50 [3]: 0.92 nM
- EC50 [4]: 0.48 nM
- EC50 [5]: 0.3 nM
- Kd [8]: < 0.15 nM
- Kd [9]: 0.0278 nM
- koff [9]: 8.23e-06 s⁻¹
- kon [9]: 296000 M⁻¹ s⁻¹
- binding result [18]: no binding (tested: 10 µg/mL)
B6: TH-104 IgG1-LALA humanized monoclonal antibody (antibody, V domains shown)
VH: B3 VH
VL: B5 VL
- binding result [19]: no binding (tested: 10 µg/mL)
